Results reported in patent US6521594.
Starred links: 1 amine or outer side, 2 acyl side, 3 side chain; linkers in the order of their positions; H or OH if unused. Positions of bridges follow the written chain, without caps; N, C: chain ends. Non-standard residues stand in square brackets, D forms with d. Primed or numbered codes have the meaning given here. No end group written: not given here. Pmc′ = pentamethylenecysteine (from Boc-D/L-Pmc), O=C(C(N[*:1])C1(S[*:3])CCCCC1)[*:2]; Cys(β,β-pentamethylene) = O=C([C@@H](N[*:1])C1(S[*:3])CCCCC1)[*:2]; Tyr(Me)″ = COc1ccc(C[C@H](N[*:1])C(=O)[*:2])cc1; 2Nal = N[C@@H](Cc1ccc2ccccc2c1)C(=O)O; Pen = CC(C)(S)[C@H](N)C(=O)O

T1: Vitronectin receptor (human), P06756
T1 chain 1: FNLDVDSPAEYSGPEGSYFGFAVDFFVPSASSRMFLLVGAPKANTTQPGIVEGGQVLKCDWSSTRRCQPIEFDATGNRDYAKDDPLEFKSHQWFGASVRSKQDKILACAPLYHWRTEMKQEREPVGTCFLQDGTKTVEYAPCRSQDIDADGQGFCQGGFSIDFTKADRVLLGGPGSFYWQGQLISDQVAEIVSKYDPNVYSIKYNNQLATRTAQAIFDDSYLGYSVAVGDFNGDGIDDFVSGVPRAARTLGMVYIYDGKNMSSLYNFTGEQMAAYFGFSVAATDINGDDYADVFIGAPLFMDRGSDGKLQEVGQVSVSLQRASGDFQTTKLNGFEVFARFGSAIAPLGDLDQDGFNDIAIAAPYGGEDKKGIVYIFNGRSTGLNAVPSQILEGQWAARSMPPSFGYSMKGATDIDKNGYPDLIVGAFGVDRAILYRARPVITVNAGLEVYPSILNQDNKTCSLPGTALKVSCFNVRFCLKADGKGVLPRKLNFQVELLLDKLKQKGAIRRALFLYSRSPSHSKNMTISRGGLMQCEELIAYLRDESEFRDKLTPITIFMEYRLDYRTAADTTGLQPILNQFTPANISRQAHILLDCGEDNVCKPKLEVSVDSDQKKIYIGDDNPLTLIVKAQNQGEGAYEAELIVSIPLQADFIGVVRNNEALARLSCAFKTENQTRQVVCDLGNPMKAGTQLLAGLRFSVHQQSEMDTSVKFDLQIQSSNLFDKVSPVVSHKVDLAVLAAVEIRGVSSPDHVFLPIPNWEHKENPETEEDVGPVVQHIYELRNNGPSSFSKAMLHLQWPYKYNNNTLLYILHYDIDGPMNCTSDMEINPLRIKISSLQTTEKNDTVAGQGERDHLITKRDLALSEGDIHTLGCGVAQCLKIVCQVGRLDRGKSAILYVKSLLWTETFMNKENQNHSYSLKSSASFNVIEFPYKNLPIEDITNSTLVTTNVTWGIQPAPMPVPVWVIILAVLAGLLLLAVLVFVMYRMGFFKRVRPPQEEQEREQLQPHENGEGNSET
T1 chain 2: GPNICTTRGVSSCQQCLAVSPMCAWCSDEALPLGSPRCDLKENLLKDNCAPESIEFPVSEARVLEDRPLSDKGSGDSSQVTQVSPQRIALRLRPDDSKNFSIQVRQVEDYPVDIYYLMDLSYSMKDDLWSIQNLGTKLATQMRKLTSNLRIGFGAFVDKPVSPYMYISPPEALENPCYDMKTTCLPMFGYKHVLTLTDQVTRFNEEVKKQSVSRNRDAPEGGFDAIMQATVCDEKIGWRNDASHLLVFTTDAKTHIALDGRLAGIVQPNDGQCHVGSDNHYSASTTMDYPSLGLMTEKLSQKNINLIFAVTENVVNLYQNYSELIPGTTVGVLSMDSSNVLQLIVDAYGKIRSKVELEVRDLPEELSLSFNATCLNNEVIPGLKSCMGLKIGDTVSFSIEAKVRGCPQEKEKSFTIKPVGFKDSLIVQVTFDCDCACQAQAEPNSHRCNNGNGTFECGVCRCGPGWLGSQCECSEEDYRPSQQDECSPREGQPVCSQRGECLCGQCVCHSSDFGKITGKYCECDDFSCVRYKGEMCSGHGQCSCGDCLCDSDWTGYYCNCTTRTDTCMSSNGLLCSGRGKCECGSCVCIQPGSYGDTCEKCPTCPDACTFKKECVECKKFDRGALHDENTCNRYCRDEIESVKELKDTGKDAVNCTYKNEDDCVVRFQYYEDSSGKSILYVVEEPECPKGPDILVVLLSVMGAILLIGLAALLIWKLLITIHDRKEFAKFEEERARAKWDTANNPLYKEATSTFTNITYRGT

B1: R(Pmc)G(DY)RGD(Y-OMe)RCR (peptide)
chain: R[Cys(β,β-pentamethylene)]GXRGD[Tyr(Me)″]RCR
modifications: disulfide 2-10; not fully specified (residue 4); printed as R(Pmc)G(DY)RGD(Y-OMe)RCR

Columns and labels:
[1] = molecular target: Fibronectin receptor (human), P08648; test: ELISA; details: modification not given
[2] = molecular target: Platelet glycoprotein IIb/IIIa (human), P08514; test: ELISA; details: modification not given
[3] = molecular target: T1, Vitronectin receptor (human), P06756; test: competition, ELISA or liposome assay, vitronectin coated
[4] = molecular target: Platelet glycoprotein IIb/IIIa (human), P08514; test: competition, ELISA or liposome assay
[5] = molecular target: Platelet glycoprotein IIb/IIIa (human), P08514; test: cell-based or functional assay

Fibronectin receptor (human), P08648, sequence (P08648 42-1049, chain 1 of 2): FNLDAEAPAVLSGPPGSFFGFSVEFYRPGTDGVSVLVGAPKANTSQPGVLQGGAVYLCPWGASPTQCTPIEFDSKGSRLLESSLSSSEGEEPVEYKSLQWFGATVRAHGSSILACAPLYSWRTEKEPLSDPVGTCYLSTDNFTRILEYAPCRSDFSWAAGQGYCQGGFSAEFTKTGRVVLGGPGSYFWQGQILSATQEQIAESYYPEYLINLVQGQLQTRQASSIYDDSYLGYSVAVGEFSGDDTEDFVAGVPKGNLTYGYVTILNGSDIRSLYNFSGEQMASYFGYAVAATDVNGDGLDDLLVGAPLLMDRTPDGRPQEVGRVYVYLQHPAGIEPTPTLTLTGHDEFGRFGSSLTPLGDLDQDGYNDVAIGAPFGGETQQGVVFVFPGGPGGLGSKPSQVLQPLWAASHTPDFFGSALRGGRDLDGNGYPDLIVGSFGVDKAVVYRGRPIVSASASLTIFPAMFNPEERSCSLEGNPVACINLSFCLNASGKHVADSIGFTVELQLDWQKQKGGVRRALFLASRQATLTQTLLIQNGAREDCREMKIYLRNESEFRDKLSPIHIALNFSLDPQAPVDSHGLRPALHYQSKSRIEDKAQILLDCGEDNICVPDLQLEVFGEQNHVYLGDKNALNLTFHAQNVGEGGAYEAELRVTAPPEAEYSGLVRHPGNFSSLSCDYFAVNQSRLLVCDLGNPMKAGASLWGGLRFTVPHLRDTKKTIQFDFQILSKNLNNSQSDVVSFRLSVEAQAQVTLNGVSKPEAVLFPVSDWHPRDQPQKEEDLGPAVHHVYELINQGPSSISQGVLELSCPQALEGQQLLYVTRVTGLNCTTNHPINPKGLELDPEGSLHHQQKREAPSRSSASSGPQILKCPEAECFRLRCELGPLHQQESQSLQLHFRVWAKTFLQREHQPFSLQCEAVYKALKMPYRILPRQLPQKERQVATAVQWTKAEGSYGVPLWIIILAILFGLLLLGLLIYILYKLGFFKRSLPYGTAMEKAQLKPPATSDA
Fibronectin receptor (human), P08648, sequence (chain, as listed by the source, chain 2 of 2): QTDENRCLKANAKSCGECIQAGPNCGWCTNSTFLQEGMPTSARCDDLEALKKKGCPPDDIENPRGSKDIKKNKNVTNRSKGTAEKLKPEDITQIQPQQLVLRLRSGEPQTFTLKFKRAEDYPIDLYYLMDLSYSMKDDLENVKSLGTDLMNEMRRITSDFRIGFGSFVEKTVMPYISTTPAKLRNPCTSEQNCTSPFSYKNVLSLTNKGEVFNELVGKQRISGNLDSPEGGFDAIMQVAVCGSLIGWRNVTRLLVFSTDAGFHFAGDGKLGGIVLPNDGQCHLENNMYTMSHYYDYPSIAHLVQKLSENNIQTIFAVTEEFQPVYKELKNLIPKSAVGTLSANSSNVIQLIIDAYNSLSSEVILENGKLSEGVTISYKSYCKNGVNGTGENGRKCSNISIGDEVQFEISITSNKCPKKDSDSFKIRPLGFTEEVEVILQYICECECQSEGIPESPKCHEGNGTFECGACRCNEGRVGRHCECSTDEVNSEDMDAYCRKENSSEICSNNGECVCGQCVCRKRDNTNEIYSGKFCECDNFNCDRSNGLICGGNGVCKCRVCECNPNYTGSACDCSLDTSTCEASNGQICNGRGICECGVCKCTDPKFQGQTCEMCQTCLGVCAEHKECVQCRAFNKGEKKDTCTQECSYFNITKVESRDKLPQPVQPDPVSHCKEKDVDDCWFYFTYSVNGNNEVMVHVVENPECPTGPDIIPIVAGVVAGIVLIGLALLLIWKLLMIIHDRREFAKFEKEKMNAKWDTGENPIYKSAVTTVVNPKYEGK

| Binder | IC50 [1] [nM] | IC50 [2] [nM] | further results |
| --- | --- | --- | --- |
| R[Pmc′]SHRGD[Y‑OMe]RCR (disulfide 2-10) [R(Pmc)SHRGD(Y-OMe)RCR] | > 10000 |  |  |
| B1 | 10000 |  |  |
| R[Cys(β,β-pentamethylene)]GHRGD[2Nal]RCR (disulfide 2-10) [R(Pmc)GHRGD(2-Nal)RCR] |  | 70 |  |
| R[Pmc′]RHRGD[Y‑OMe]RCR (disulfide 2-10) [R(Pmc)RHRGD(Y-OMe)RCR] |  | 70 |  |
| G[Pen]IARGDWNCA (disulfide 2-10) [G(Pen)…] |  |  | IC50 [3]: 40 nM; IC50 [4]: 10 nM; IC50, ADP-Stimulated Aggregation [5]: 1200 nM |
